Laboratory results as given in US20230279089A1 (GlaxoSmithKline, published 2023).
Values joined by “and” are separate entries in the source; they are usually repeats but may differ in a detail not shown here. Identical values can stand only once. Like-named read-outs stand apart in the source and are kept apart here.

T1: Mouse BMP1-3: 126-707 (mouse, UniProt P98063 126-707)
T1 sequence (looked up): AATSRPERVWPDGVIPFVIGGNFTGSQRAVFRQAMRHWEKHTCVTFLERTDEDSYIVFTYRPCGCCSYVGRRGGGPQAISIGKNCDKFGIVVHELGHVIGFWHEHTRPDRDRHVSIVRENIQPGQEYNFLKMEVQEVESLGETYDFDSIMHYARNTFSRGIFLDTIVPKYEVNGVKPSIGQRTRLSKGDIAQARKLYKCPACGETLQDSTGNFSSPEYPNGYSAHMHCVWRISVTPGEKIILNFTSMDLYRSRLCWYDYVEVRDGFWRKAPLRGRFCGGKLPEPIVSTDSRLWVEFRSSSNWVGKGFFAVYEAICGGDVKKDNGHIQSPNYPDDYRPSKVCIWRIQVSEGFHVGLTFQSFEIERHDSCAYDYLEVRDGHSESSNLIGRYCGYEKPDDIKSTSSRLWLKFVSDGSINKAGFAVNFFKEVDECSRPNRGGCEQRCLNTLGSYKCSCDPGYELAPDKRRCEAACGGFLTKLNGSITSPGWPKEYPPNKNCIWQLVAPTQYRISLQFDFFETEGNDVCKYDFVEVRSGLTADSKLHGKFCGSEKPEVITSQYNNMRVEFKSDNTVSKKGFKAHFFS

T2: Human BMP1-1 (human, UniProt P13497-2 121-730, limits assumed)
T2 sequence (looked up): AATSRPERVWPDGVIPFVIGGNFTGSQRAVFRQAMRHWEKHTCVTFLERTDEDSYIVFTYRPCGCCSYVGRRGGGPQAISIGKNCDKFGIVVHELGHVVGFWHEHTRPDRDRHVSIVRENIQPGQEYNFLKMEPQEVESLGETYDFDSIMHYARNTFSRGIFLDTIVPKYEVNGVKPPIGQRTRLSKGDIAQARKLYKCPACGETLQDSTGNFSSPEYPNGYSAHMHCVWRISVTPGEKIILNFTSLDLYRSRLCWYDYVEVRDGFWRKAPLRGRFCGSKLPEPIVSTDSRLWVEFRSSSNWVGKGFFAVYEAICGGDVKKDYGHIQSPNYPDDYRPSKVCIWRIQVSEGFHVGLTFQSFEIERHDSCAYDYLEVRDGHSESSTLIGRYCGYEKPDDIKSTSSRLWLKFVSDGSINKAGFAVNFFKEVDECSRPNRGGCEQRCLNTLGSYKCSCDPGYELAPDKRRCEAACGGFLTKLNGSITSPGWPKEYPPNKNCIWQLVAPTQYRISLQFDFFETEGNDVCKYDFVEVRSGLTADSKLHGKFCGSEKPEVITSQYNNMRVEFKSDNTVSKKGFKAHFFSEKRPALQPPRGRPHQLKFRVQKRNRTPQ

T3: Human TLL2 CD+CUB1 truncated antigen (human, UniProt Q9Y6L7 150-463, limits assumed)
T3 construct: domain: CD+CUB1
T3 sequence (looked up): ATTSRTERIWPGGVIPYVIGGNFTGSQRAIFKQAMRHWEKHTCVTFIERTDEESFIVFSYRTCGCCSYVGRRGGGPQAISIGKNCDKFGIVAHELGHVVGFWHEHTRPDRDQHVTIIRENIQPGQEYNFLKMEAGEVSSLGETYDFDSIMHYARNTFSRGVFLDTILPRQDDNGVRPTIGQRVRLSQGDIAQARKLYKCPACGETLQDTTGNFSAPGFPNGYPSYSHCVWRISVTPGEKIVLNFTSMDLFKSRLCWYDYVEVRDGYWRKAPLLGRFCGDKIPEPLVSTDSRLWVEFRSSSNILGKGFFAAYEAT

T4: Human BMP1 CD+CUB1 truncated antigen (human, UniProt P13497 121-434, limits assumed)
T4 construct: domain: CD+CUB1
T4 sequence (looked up): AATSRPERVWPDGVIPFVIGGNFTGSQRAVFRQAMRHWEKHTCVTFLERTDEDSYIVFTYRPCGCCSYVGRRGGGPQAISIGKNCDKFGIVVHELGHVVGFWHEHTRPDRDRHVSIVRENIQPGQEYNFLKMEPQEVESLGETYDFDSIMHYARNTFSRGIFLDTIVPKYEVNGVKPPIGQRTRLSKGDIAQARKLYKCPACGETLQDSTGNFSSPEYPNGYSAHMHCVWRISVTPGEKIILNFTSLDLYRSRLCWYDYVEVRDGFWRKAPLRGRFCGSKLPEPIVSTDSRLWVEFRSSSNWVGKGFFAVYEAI

T5: Mouse BMP1 CD+CUB1 truncated antigen (mouse, UniProt P98063 126-439, limits assumed)
T5 construct: domain: CD+CUB1
T5 sequence (looked up): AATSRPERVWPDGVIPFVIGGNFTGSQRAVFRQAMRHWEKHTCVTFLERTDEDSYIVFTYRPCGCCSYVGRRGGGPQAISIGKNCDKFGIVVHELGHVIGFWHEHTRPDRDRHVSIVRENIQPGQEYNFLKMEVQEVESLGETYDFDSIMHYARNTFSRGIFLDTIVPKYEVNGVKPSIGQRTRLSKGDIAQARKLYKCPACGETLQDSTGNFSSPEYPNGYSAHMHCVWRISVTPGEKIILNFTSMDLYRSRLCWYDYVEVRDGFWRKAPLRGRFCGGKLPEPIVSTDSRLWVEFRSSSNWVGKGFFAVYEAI

T6: Cyno TLL1 (cyno, UniProt A0A1D5QYV0 148-1013 (rhesus entry))
T6 sequence: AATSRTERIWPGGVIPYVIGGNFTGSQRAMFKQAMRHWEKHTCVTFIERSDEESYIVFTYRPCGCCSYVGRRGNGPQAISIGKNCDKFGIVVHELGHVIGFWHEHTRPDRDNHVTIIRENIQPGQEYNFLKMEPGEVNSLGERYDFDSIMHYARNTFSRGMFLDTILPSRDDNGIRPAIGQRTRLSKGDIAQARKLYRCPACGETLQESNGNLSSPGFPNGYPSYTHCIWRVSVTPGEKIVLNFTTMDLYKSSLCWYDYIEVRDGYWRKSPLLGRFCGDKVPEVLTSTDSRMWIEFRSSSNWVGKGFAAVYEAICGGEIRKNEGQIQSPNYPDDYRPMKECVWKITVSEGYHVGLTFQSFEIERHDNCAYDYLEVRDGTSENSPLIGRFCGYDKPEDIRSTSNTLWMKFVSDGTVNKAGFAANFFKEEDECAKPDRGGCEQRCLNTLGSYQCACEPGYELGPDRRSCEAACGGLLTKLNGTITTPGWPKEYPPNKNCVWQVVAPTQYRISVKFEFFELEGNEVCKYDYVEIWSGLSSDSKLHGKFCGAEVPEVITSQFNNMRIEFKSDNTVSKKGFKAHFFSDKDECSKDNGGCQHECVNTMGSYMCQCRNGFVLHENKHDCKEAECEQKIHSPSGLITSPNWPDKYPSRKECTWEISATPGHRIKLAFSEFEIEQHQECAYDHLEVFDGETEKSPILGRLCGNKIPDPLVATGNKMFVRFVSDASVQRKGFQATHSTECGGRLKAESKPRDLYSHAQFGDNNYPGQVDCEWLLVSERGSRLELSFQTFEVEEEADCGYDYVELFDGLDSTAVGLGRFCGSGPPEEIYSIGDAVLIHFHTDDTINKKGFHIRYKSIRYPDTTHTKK

T7: Mouse TLL1 (mouse, UniProt Q62381 148-1013, limits assumed)
T7 sequence (looked up): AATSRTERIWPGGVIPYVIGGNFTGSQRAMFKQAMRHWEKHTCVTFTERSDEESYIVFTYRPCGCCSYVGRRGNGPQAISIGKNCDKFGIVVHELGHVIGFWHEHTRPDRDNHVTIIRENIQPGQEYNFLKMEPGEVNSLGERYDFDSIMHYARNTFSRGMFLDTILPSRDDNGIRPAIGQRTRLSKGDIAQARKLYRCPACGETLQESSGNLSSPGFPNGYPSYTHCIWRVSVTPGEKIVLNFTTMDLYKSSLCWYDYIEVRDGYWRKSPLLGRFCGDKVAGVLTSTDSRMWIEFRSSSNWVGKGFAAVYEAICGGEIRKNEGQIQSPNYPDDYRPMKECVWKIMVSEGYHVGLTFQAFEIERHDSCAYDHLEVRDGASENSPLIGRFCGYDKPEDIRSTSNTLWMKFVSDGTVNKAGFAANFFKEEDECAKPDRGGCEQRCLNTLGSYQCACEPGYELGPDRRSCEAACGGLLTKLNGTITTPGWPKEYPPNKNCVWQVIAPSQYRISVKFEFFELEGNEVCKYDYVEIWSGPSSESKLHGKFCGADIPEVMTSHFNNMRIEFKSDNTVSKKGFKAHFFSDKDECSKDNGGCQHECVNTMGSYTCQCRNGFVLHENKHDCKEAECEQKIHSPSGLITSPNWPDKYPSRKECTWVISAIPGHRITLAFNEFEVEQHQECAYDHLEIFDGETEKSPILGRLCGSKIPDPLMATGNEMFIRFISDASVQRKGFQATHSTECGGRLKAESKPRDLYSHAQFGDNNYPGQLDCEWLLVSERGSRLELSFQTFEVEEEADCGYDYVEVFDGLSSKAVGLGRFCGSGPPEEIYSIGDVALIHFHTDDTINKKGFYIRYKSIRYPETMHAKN


Experiments:
[1] = biological target: T1, Mouse BMP1-3: 126-707; assay: cell-based or functional assay
[2] = biological target: T2, Human BMP1-1; assay: cell-based or functional assay
[3] = biological target: T3, Human TLL2 CD+CUB1 truncated antigen; assay: SPR, captured mAb, HBS-EP
Description: (§1) Both antibodies 13Y039-4B06-4334 and 13Y039-3E07-2944 and the reverse chimeric antibodies were evaluated for binding to human TLL2 CD+CUB1 and mouse BMP1 CD+CUB1 truncated antigens by SPR on a BIACORE T200. Protein A/G was immobilised to a CM5 sensor chip via amine coupling and the antibodies were captured to the protein A/G surface. The antigens were passed over the captured antibody at various concentrations. The measured affinities to human TLL2 CD+CUB1 are shown in Table 2 and the measured affinities to mouse BMP1 CD+CUB1 are shown in Table 3.

[4] = biological target: T4, Human BMP1 CD+CUB1 truncated antigen; assay: SPR, captured mAb, enzyme dilution buffer
[5] = biological target: T3, Human TLL2 CD+CUB1 truncated antigen; assay: SPR, captured mAb, HBS-EP; remark: listed apart in the source
Description: as §1

[6] = biological target: T5, Mouse BMP1 CD+CUB1 truncated antigen; assay: SPR, captured mAb, HBS-EP
Description: as §1

[7] = biological target: T4, Human BMP1 CD+CUB1 truncated antigen; assay: SPR, captured mAb, HBS-EP
[8] = biological target: T2, Human BMP1-1; assay: cell-based or functional assay; remark: listed apart in the source
[9] = biological target: T4, Human BMP1 CD+CUB1 truncated antigen; assay: SPR, mAb captured on protein A, HBS-EP
Description: The 16 lead panel antibodies expressed in HEK cells were evaluated for binding to a truncated version of human BMP containing the catalytic domain and truncated domain (Human BMP1 CD+CUB1 truncated antigen) by SPR using BIACORE T200. HBS-EP+ buffer was used and the experiment run at 25° C. Protein A was immobilised to a CM5 sensor chip via amine coupling. The lead panel antibodies were captured onto protein A surface. Human BMP1 CD+CUB1 was then passed over the captured antibodies at various concentrations.

[10] = biological target: T2, Human BMP1-1; assay: cell-based or functional assay; remark: listed apart in the source
[11] = biological target: T6, Cyno TLL1; assay: cell-based or functional assay
[12] = biological target: T7, Mouse TLL1; assay: cell-based or functional assay
[13] = biological target: T1, Mouse BMP1-3: 126-707; assay: cell-based or functional assay; remark: listed apart in the source

pKi, app, FRET enzyme activity, Mouse BMP1 [1]	pKi, app, FRET enzyme activity, Human BMP1 [2]	Kd [3]	Kd [4]	Kd [5]	Kd [6]	Kd [7]	IC50 (read off the curve) [8]	Kd [9]	IC50, FRET enzyme activity, 62.5 pM huBMP1 [10]	IC50, FRET enzyme activity, 750 pM biotinylated cynoTLL-1 [11]	IC50, FRET enzyme activity, 800 pM biotinylated mTLL-1 [12]	IC50 (read off the curve) [13]	Binder
11.4	12.3	3.54 nM	0.04 nM	3.55 nM	0.82 nM and 1.98 nM	2.33 nM							13Y039-4B06-4334 human variable region on mouse IgG2a LAGA Fc, mouse cKappa (Compound A) (antibody, Reverse chimera; the printed variable regions are those of 4B06-4334; also called 13Y039-4B06-4334 reverse chimera mouse IgG2a LAGA; 13Y039-4B06-4334, mIgG2a LAGA) heavy: QVQLVQSGAEVKKPGASVKVSCKASGYTFLGYYMSWVRQAPGQGLEWMGWINPLSGETNYAQKFQGRVTMTRDTSISTAYMELSRLRSDDTAVYYCARDTGELDGMNWYFDLWGRGTLVTVSSAKTTAPSVYPLAPVCGDTTGSSVTLGCLVKGYFPEPVTLTWNSGSLSSGVHTFPAVLQSDLYTLSSSVTVTSSTWPSQSITCNVAHPASSTKVDKKIEPRGPTIKPCPPCKCPAPNLAGAPSVFIFPPKIKDVLMISLSPIVTCVVVDVSEDDPDVQISWFVNNVEVHTAQTQTHREDYNSTLRVVSALPIQHQDWMSGKEFKCKVNNKDLPAPIERTISKPKGSVRAPQVYVLPPPEEEMTKKQVTLTCMVTDFMPEDIYVEWTNNGKTELNYKNTEPVLDSDGSYFMYSKLRVEKKNWVERNSYSCSVVHEGLHNHHTTKSFSRTPGK light: EIVLTQSPATLSLSPGERATLSCRASQSVSSYLAWYQQKPGQAPRLLIYDASNRATGIPARFSGSGSGTDFTLTISSLEPEDFAVYYCQQSDSWPPTFGGGTKVEIKRADAAPTVSIFPPSSEQLTSGGASVVCFLNNFYPKDINVKWKIDGSERQNGVLNSWTDQDSKDSTYSMSSTLTLTKDEYERHNSYTCEATHKTSTSPIVKSFNRNEC
							~0.5 nM	1.6 nM	0.06 nM	0.02 nM	0.56 nM	~0.06 nM	13Y039-8F02-2949 (antibody, human IgG1, kappa, V domains shown, Fully human IgG1 LAGA, kappa; HEK expressed) VH: QVQLVQSGAEVKKPGSSVKVSCKASGGTFSEWAISWVRQAPGQGLEWMGAIIPKFGTAEYAQKFQGRVTITADESTSTAYMELSSLRSEDTAVYYCARGAKYYYAEDYMDVWGKGTTVTVSS VL: DIQMTQSPSSVSASVGDRVTITCRASQGISSWLAWYQQKPGKAPKLLIYAASSLQSGVPSRFSGSGSGTDFTLTISSLQPEDFATYYCQQALSLPYTFGGGTKVEIKR
